Test [1] deals with recombinant enovin (6xHis-tagged mature human Enovin expressed from plasmid hEVNmat/pRSETB in E. coli BL21(DE3), refolded) (human). The experiment in a line: SPR (BIAcore 3000, 25 C), enovin immobilized, soluble GFRα3-Fc in flow; KD calculated as kd/ka.
For test [2] the target is unchanged. The experiment in a line: SPR (BIAcore 3000, 25 C), enovin immobilized, soluble GFRα3-Fc in flow at three concentrations.
The target in test [3] is T1, soluble GFRα-1 IgG1-Fc fusion protein (GFRα-1 amino acids 27 to 427 fused to human IgG1-Fc, from CHO cells) (human, UniProt P56159 27-427).
T1 construct: range 27-427; The 17 amino acid CD33 signal peptide of the vector is left out; also called GFRα1-Fc; not shown: 243 amino acid COOH-terminal human IgG1-Fc fusion domain of vector Signal pIg plus (R&D Systems); Its exact limits and a
T1 sequence (looked up): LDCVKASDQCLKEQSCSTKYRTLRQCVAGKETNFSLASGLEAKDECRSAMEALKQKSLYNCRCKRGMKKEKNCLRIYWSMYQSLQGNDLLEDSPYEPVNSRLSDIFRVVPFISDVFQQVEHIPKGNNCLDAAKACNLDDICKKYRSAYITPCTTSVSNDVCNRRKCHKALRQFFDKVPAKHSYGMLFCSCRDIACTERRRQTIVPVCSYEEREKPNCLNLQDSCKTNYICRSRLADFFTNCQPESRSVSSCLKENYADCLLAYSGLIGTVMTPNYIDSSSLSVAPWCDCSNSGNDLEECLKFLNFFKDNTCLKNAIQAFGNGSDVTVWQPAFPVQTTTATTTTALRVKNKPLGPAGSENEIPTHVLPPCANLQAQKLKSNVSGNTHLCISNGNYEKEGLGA
The experiment in a line: SPR (BIAcore 3000), enovin immobilized, soluble GFRα-Fc in flow. How it is done:
(§1) Surface plasmon resonance (SPR) experiments were performed at 25° C. using a BIAcore 3000 instrument. Analyses were performed with enovin and NGF as immobilized ligands. The carboxylated matrix of a Fl sensor chip was first activated with a 1:1 mixture of 400 mM N-ethyl-N-(dimethylaminopropyl)-carbodiimide and 100 mM N-hydroxy-succinimide for 10 min. Than, recombinant enovin and NGF were applied onto the activated surface in […] acetate buffer, pH 4.5 at a flow rate of 5 μl/min. Unoccupied reactive groups were inactivated with 1 M ethanolamine hydrochloride. For binding experiments, soluble GFRα1-3-Fc were superfused at concentrations of 10-100 nM in HEPES buffered saline (150 mM NaCl, 3.5 mM EDTA, 0.05% P-20, 10 mM HEPES, pH 7.4) at a flow rate of 10 μl/min. The association was monitored for 3 min and dissociation for 1 min, followed by regeneration with 5 mM NaOH. Dissociation was initiated by superfusion with HEPES buffered saline. A BIAcore evaluation software, 3.0 was used to calculate the association rate (kₐ), dissociation rate (kd) and the equilibrium dissociation constants (KD calculated as kd/Kₐ).

Test [4] has as its target T2, soluble GFRα-2 IgG1-Fc fusion protein (GFRα-2 amino acids 20 to 431 fused to human IgG1-Fc, from CHO cells) (human, UniProt O00451 20-431).
T2 construct: range 20-431; The 17 amino acid CD33 signal peptide of the vector is left out; also called GFRα2-Fc; not shown: 243 amino acid COOH-terminal human IgG1-Fc fusion domain of vector Signal pIg plus (R&D Systems); Its exact limits and a
T2 sequence (looked up): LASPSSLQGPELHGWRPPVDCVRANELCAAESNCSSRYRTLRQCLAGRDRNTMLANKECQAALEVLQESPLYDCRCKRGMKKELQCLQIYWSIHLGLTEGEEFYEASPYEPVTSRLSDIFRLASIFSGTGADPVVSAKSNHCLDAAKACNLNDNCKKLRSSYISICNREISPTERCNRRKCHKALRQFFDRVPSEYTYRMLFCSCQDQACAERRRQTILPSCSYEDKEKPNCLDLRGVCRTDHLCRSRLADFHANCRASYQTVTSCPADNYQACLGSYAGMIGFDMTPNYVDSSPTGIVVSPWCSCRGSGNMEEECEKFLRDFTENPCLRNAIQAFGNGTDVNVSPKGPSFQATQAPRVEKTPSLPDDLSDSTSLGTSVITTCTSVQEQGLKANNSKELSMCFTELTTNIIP
Described as above. As for the experimental part: as §1

B1: soluble GFRα-3 IgG1-Fc fusion protein (GFRα-3 amino acids 28 to 371 fused to human IgG1-Fc, from CHO cells) (Fc fusion, UniProt O60609 28-371, looked up, not shown: a dimerising Fc or GST)
chain: LAAGDPLPTESRLMNSCLQARRKCQADPTCSAAYHHLDSCTSSISTPLPSEEPSVPADCLEAAQQLRNSSLIGCMCHRRMKNQVACLDIYWTVHRARSLGNYELDVSPYEDTVTSKPWKMNLSKLNMLKPDSDLCLKFAMLCTLNDKCDRLRKAYGEACSGPHCQRHVCLRQLLTFFEKAAEPHAQGLLLCPCAPNDRGCGERRRNTIAPNCALPPVAPNCLELRRLCFSDPLCRSRLVDFQTHCHPMDILGTCATEQSRCLRAYLGLIGTAMTPNFVSNVNTSVALSCTCRGSGNLQEECEMLEGFFSHNPCLTEAIAAKMRFHSQLFSQDWPHPTFAVMAHQ
On to B1, for which the Kd in test [1] is 3.1 nM. For the same molecule, in test [2], the koff is 0.000508 s⁻¹ and the kon was 165000 M⁻¹ s⁻¹.

B2: recombinant enovin (6xHis-tagged mature human Enovin expressed from plasmid hEVNmat/pRSETB in E. coli BL21(DE3), refolded) (ligand)
chain: MRGSHHHHHHGMASMTGGQQMGRDLYDDDDKDPAGGPGSRARAAGARGCRLRSQLVPVRALGLGHRSDELVRFRFCSGSCRRARSPHDLSLASLLGAGALRPPPGSRPVSQPCCRPTRYEAVSFMDVNSTWRTVDRLSATACGCLG
notes: The construct codes for a 146 amino acid protein: 33 leader and tag residues plus 113 residues of mature enovin; also called immobilized enovin
On to B2, for which the binding result in test [3] and in test [4] was “no binding (tested: 10-100 nM)” throughout.

These data come from patent US20110201552A1 (Janssen / Centocor, published 2011).
